Laboratory results taken from the DeepSol protein solubility set.

Experiment: soluble on expression in E. coli; label from the status in PepcDB or PDB records

Row | Sequence | soluble on expression in E. coli
1 | AHHHHHHGSQRLEESTSCRGVGDMRKAIIVGVGMTPVGEHWRSSLRDLAVEAILNAMDDAGIDKVDSLYVGNMASGSFVEQENLGALIADWAGLGNIPAVKIEAACASGGAAVQEGAKAVLSGLEDVVLVVGVEKMTDAWPSDATRYLGYAADAEWELFHGASFVALNALIMRLYMNTYGYKEEDLALFAVNAHANGAKNPYAMFKKPITVETVMKSPYIADPLKLFDASPVCDGAAAVIITTPEKAKELGIPKDKWIEIAGMGRAIDTINLANREDFLTLKAATIAAERAYKMAGVKPEDVDFFEVHDAFTVMAALSLEALGVAKKGEGAKLAIEGQIAIDGDYPIQTMGGLKARGHPVGATGVYQVVEAVLQLRGEAPDGIQVPDAEVGLTQNIGGTGSNITVTVLRRV | soluble
2 | AHHHHHHGSTWREILRKEGFLDLGEFIVELVYIDCPCEPIPPTLAIYDKKGDEWYKVEEAPNVQNYREAVEWAIEVLERIRDGENVKLVSLDGPAPPKVMKRLSLALQKLTE | not soluble
3 | AIAEHKEVVLLLLLFLKSGQGEPLDDYVNTQGPSLFSVTKKQLGAGSREECAAKCEEDKEFTCRAFQYHSKEQQCVIMAENRKSSIIIRMRDAVLFEK | soluble
4 | AIAEVLRPPLININGRIYRKNPVQEETYEEEEEDCSYSEAAVDQCLDEPCDAHNIEQTDRGFRCALDVPSVLYKYIIGKKGETRRRLESETKTSINIPKQGVEGQIVVTGAHRPSVSSAVTRIEVLIDSFRRKQPFTHFLSFALNHAQVREGFLRFREEVLEHCSQDSGVDVSIFQNPDKLHLTIGTLVLLNQQEVTRANELLHQCQDTIREITGAEALPVEVRGVEYMNDDPSMVDVLYAKVSVQDGSDRLQQISDRLVECFVSAGLMERERDRVKIHATVMNTLFRRDPSAEDRGAPARANPRDREAFNGKNILQMFGDFYFGAFELNSVQISQRFSTDSSGYYSSAGHITFS | soluble
5 | AIAGNTTSERVSGERHGAKAARAEGGGHGPGKEHKIMVGSTDDPSVFSLPDSKLPGDKEFVPWQQDLDDSVKPAQQARPTVIRWSEGGKEVFISGSFNNWSTKIPLIKSHNDFVAILDLPEGEHQYKFFVDGQWVHDPSEPVVTSQLGTINNLIHVKKSDFEVFDALKLDSMESSETSCRDLSSSPPGPYGQEMYVFRSEERFKSPPILPPHLLQVILNKDTNISCDPALLPEPNHVMLNHLYALSIKDSVMVLSATHRYKKKYVTTLLYKPI | soluble
6 | AIANCCIGLGEKARGSHRASYPSLSALFTEASILGFGSFAVKAQWTEDCRKSTYPPSGPTVFPAVIRYRGAVPWYTINLDLPPYKRWHELMLDKAPVPGLLGNFPGPFEEEMKGIAAVTDIPLGEIISFNIFYELFTVCTSIVAEDKKGHLIHGRNMDFGVFLGWNINNDTWVITEQLKPLTVNLDFQRNNKTVFKASSFAGYVGMLTGFKPGLFSLTLNERFSINGGYLGILEWILGKKDAMWIGFLTRTVLENSTSYEEAKNLLTKTKILAPAYFILGGNQSGEGCVITRDRKESLDVYELDAKQGRWYVVQTNYDRWKHPFFLDDRRTPAKMCLNRTSQENISFETMYDVLSTKPVLNKLTVYTTLIDVTKGQFETYLRDCPDPCIGW | soluble
7 | AIANFNDAKNEILQVLSKTERQHLPKLLEWIKTSDDLDDILVDNQSVILHSIAEDLRACLPMEAMAPSETLAMQKTQQKAHPTVHVDAFLYDDETVDSLCEEGKMSRTYCLNCGSHRTAPLEFISHSFSIPELQFLFHNVLPELTGKLVLDVGSRLGAVLFGGYLYSAASQLVGVEMSSEFVKLQSMAVEKYGFSDRIQVIHADIRSQIALVQKADVLIMNNVFEYFMEPRDQMQAWLYISQNFRKKGALLVTVPSIQEALGLLQDAAFLETLSLSQWIEEIPVDYSVYLKNDTDPDSLKQIHLYRVL | soluble
8 | AIAPGRKRKLAAKTAELAPEAGEGSESTSLVGSADASASTAAGVAHTEQQEMPSGGLHESFLESIPPAASFLEELAWVESLASPSYVAYLCQMRRFDDVVAQRRLTTLQRWRQDPAYRQHVSQPIALFFLEQLCSAEFREALRHPAVAALYERQVDLYRRCYGNLLNTGESRVLR | soluble
9 | AIASCGKPQETYSTSSILTREQFEIQHQEEDTIGEQVIFIDGVAYNSRGFRVCGAPNQRGGFCARFGQCPFHKDKVTTFKMSEETVSEFPRQLLTESCNLLQNNERKFKNAWKLDEHHRFLVALKKFGHGNWRQIADYVETRSASQCQSHAQKYYLRKRKLASNANLKRSIFDLIDEDTLSVEIGEEDTWNIIQKCPSKEAQGSVRSRSKTLQRMSTDSSVESYPIRELSTVDSELSTLQTYKQASFFIRIFRNGVFSHGVDLELPNSLASFFIKAAQLLDMSVATKAYTRSGFEISSLHEVCPGDILWISSGEEFIFPSPVQYIET | soluble
10 | AIASDKYIGDSHLEETGEEKQDSQEKEAVTPEKAEEQKLKAKYPNLGQKPGGSDFLMKRLQKGQKYFDSGDYNMAKAKIKNKQLPCAGPDKNLVTGDHIPTPQDLPQRKSSLVTSKLAGHVEDLHHV | soluble
11 | AIASFRTCHNWFPLCLLLKETNNDISGEGIYSSRSELFQQPLAKETQRWSTGPSFVKHYGRLKRHSLPAVHFFDNSQSFLQNLQPNETFPETTTLDWKELENATRLLNDFMESASEDGDSLFDDEFPTMHAKTKLQDGLSTHPQSPPSDITQSVLSNTQSPVPSMLSETELPDFGEDFVNANEELVS | soluble
12 | AIASQFDPDKFKQEQKARWNQGARSTWTLWKQTQVEDTPAKFFLGLVPIRPGVKVLDLACGSGETSLQVAQLVSSHLPSDSKDAKIVCVDISEEMLRVLSQRAQELGLSSVVETCCEDAENINFGTHYFDMVMSQFGVMFLPHLPEDLANIRKMMKPGSLFCCVVWGEEKDCHIFYAARSVVSPPPPPPGTPVSYGTKEKVMEALRKAEFSDVKAVEFQVVHETKDAEEYITLMSGVNQWLEKSLGEKGSGPWQKLVEYCNNSYRTSRGTLQFPNVCVGITAIA | soluble
13 | AIATGVYADAVLVSVTVGDTVTLHTAGVKNLQPADVKWYFNDIRIAQLDGDLRFNCTDIQCNDRTEIFIDRLRLDRKTGALTIVNITNTHSGVYQLVVIGGGGTIFNVTVHDDPATHYNQVKKNQGESVTFNPGVRRDLIVVLKCLLNNTLIAEISVNQSQICADVQCKERFTDRLKLDNESASLTITNTNITDSGNYTSVILISSDRRFSITREKRFSLTVTSLSSSQPSGGAIAGIVVMLLLLL | soluble
14 | AIIVKKTTEIEQTHKDYDPYQILGLDQGADEKAIKKAWRDMSKIHHPDRGGDAQFFDKIAKAHQALTDKEARENWEKYGNPDGPTATTFGIALPKWLVSKEYGL | not soluble
15 | AISQDYNINMSGGNDKGTYYAGLGYNRQEGLPIKTFYERYSFVLNASYKITDWLTSSSNFNYNRANWKNMPGSQTSEGNYFGRIMSTPPTVRFQDEDGNPTLGPVAGDGNQNYQPDKWWNFNQSDKFTMVQAFQIDILKNLSVKGTANWYYSESLAESFTRDYENTPGQFVRTRSSSASFSRNFSQTYNVVLNYNQTFAKDHNVAVMLGMEYFDRYSRSFSASGSGAPTDDFADLSLTDNGEGKRSIDSGHSDYRILSYFGRLNYDYKGRYLLSAVFRQDGYSSLLGDNRWGFFPGVSAGWIFGQENFVKNALPFLSFGKLRASYGVNGNATGIGAYDLQGSYNSQKYNGNVGFLIGALPNPGLKWEKTRTAEVGIDMSFFENRLNANFTYYNRLTSDKYANLSLPSTTGFSSIKNNNGKFRNSGVEIELSGKILKTKDWSWDLGGNISFNKNKIVSLPDNGLIRNQQDAAQIYSGRQLSDGTYEKIWVGGNQEGYEPGVLIAYKADGLYRSWDEIPGDLVVTSGNYFGKKMYGPEAWKKLSSAEQKNALPIQPGDVKWRDINGDGMIDNYDQVVVGNTNPHWIGGFNTTLRWKNFQLYGRFDFAFDYWIYDNTTPWFLGCMQGTYNTTKDVFNTWSEENPNAKYPRFVYADQLMNANYYRTSTLFAYKGNYLAIREISLSYSLPKAWANKAYCQKVDVSITGQNLGYITSANVASPEVSSAGSGYALPRTLLFGLNVTF | not soluble
16 | AKVEVGDEVGNFKFYPDSITVSAGEAVEFTLVGETPHNIVFDIPAGAPGTVASELKAASMDENDLLSEDEPSFKAKVSTPGTYTFYCTPHKSANMKGTLTVK | soluble
17 | ALAKRIDAALILKDGRVVKGSNFENLRDSGDPVELGKFYSEIGIDELSFWDITASVEKRKTMLELVEKVAEQIDIPITVGGGIYDFETASELILRGADKVEINTAAVENPSLITQIAQTFGSQAVVVYIAAKRVDGEFMVFTYSGTKNTGILLRDWVVEVEKRGAGEIVLGSIDRLGTKSGYDTEMIRFVRPLTTLPIIAHRGAGKTEHFLEAFLAGADAAKADSVFHSREIDVRELKEYLKKHGVNVRLEGLGSLEHHHHHH | soluble
18 | ALIIVSGSEGRIEKAQNIAQLLSSRGYICLAIAYFGLEGLPKHLKRIPLECLVEAKSYLRQYPQVDSERIGIYGRSKGAELVLAEESIFNDVQCLVLNSPSDVVDEGIIGKWNSHTSSWTHLQKELPYQKFRFRDYLFSKLFRKDFPKDCSARIDIGQMHSPILLLESTVDEIWDASSAIDDIVSHYKGHYITFKKYHETGHMLTVAYQPNHRYRKDWHLLMKESEDSWLATIHFFDRHLK | not soluble
19 | AMGTKSSAAVALKGLQFVTAKVGNDGWAAVEKRFNQLQVDGVLLRSRFGKCIGMDGSDEFAVQMFDSLARKRGIVKQVLTKDELKDFYEQLTDQGFDNRLRTFFDMVDKNADGRLTAEEVKEIIALSASANKLSKIKERADEYTALIMEELDPTNLGYIEMEDLEALLLQSPSEAAARS | soluble
20 | AMNAYYIQDRLEAQSWARHYQQLAREEKEAELADDMEKGIPQHLFESLCIDHLQRHGASKKSITRAFDDDVEFQERMAEHIRYMVETIAHHQVDIDSEV | soluble
21 | APIKVGINGFGRIGRMVFQAICDQGLIGTEIDVVAVVDMSTNAEYFAYQMKHDTVHGRPKYTVEAVKSSPSVETADVLVVNGHRIKCVKAQRNPADLPWGKLGVDYVIESTGLFTDKLKAEGHIKGGAKKVVISAPASGGAKTIVMGVNQHEYSPASHHVVSNASCTTNCLAPIVHVLTKENFGIETGLMTTIHSYTATQKTVDGVSLKDWRGGRAAAVNIIPSTTGAAKAVGMVIPSTKGKLTGMSFRVPTPDVSVVDLTFRATRDTSIQEIDKAIKKAAQTYMKGILGFTDEELVSADFINDNRSSVYDSKATLQNNLPGEKRFFKVVSWYDNEWAYSHRVVDLVRYMAAKDAASSKM | soluble
22 | APPSSFSKAKKEAVKIYLDYPTSFYCGCDITWKNKKKGIPELESCGYQVRKQEKRASRIEWEHVVPAWQFGHQRQCWQKGGRKNCTRNDKQFKSMEADLHNLVPAIGEVNGDRSNFRFSQWNGSKGAFYGQCAFKVDFKGRVAEPPAQSRGAIARTYLYMNNEYKFNLSKAQRQLMEAWNKQYPVSTWECTRDERIAKIQGNHNQFVYKAC | soluble
23 | APTAPSIDMYGSNNLQFSKIELAMETTSGYNDMVKYHELAKIKVKFNQWSGTSGDTYNVYFDGVKVATGAITGSQTTASFEYGQGGLYQMEIEACDATGCSKSAPVEITIADTDGSHLKPLTMNVDPNNKSYNTDPSIVMGTYFVEWGIYGRDYTVDNMPVDNLTHILYGFIPICGPNESVKSVGGNSFNALQTACRGVNDYEVVIHDPWAAYQKSFPQAGHEYSTPIKGNYAMLMALKQRNPDLKIIPSIGGWTLSDPFYDFVDKKNRDTFVASVKKFLKTWKFYDGVDIDWEFPGGGGAAADKGDPVNDGPAYIALMRELRVMLDELEAETGRTYELTSAIGVGYDKIEDVDYADAVQYMDYIFAMTYDFYGGWNNVPGHQTALYCGSFMRPGQCDGGGVDENGEPYKGPAYTADNGIQLLLAQGVPANKLVLGTAMYGRGWEGVTPDTLTDPNDPMTGTATGKLKGSTAQGVWEDGVIDYKGIKSFMLGANNTGINGFEYGYDAQAEAPWVWNRSTGELITFDDHRSVLAKGNYAKSLGLAGLFSWEIDADNGDILNAMHEGMAGGVVTPPNRRSHHHHHH | soluble
